Here are results for three substances from PMC12657241.

Usually Kd stands for the free concentration of one partner at which half of the binding sites on the other are occupied at equilibrium, for simple one-to-one binding. Low readings indicate tighter binding, high ones weaker binding.

Test [1] has as its target wild-type OppA, periplasmic binding protein of the oligopeptide permease (Opp) ABC transporter (E. coli) (UniProt P23843). The test is described as follows: MST.
The target in test [2] is OppA-iso, evolved OppA variant (E. coli) (UniProt P23843). Description: MST.

Take “SisoK, isopeptide-linked dipeptide (serine on the ε-amine of lysine)”: the Kd in test [1] and in test [2] was 300 µM throughout.
As to G-SisoK, isopeptide-linked tripeptide, the dissociation constant (Kd) was 50 µM in test [1] and 37 µM in test [2].
On the same counts, the results for linear GSK tripeptide are 71 µM and 275 µM.
